Results taken from article PMC10312975 (Research Square, 2023).
Changes are numbered by the printed parent chain. In names and notes the source's numbering stands.

B1: CCDC22 DBD (280-446), untagged (domain or fragment, human, UniProt O60826 280-446, looked up)
chain: GAGAKTGAPKGSRFTHSEKFTFHLEPQAQATQVSDVPATSRRPEQVTWAAQEQELESLREQLEGVNRSIEEVEADMKTLGVSFVQAESECRHSKLSTAEREQALRLKSRAVELLPDGTANLAKLQLVVENSAQRVIHLAGQWEKHRVPLLAEYRHLRKLQDCRELES
notes: CCDC22, human, DBD; source: E. coli BL21 (DE3) T1R, purified, MBP removed with TEV; not shown: MBP, N-terminal, cleaved
B2: MBP-tagged CCDC22-CCDC93 DBD dimer, CCDC93 E410R (complex, human)
chain 1: B1 chain
chain 2: SPEKLGTSQLHRRKVISLNKQIAQKTKHLEELRASHTSLQARYNEAKKTLTELKTYSEKLDKEQAALEKIESKADPSILQNLRALVAMNENLKSQEQEFKAHCRERMTRLQQEIENLKAERAPRGDEKT
notes: CCDC22, human, DBD; CCDC93, human, DBD; source: E. coli BL21 (DE3) T1R, purified; not shown: MBP, N-terminal, kept
B3: MBP-tagged CCDC22-CCDC93 DBD dimer (complex, human)
chain 1: B1 chain
chain 2: B2 chain 2 with R106E
notes: CCDC22, human, DBD (CC1, CC2a); CCDC93, human, DBD (CC1, CC2a); also called DBD heterodimer; source: E. coli BL21 (DE3) T1R, purified (amylose, mixed about 1:1, Source 15Q, Superdex 200); not shown: MBP, N-terminal, kept
B4: CCDC93 DBD (305-433), untagged (domain or fragment, human, UniProt Q567U6 305-433, looked up)
chain: B2 chain 2 with R106E
notes: CCDC93, human, DBD; source: E. coli BL21 (DE3) T1R, purified, MBP removed with TEV; not shown: MBP, N-terminal, cleaved
B5: MBP-CCDC93 (305-433) (domain or fragment, human, UniProt Q567U6 305-433, looked up)
chain: B2 chain 2 with R106E
notes: CCDC93, human, DBD; also called MBP-CCDC93 DBD; source: E. coli BL21 (DE3) T1R, purified (amylose); not shown: MBP, N-terminal, kept

Columns and labels:
Conditions in all cases: both partners purified
[1] = biological target: T1, DENND10, full length, His6 tag removed (human, UniProt Q8TCE6 1-357); test: SEC; untagged DBD dimer and DENND10, alone and mixed; Superdex 200, 100 mM NaCl, 10 mM HEPES pH 7.0, 5% glycerol, 1 mM DTT; SDS-PAGE of fractions
T1 construct: DENND10 (FAM45A), human, codon-optimised gene; source: E. coli BL21 (DE3) T1R, purified (Source 15Q, TEV cleavage, Source 15Q); not shown: His6, N-terminal, cleaved

[2] = biological target: T2, His6-Tev-DENND10, full length (pull-down prey) (human, UniProt Q8TCE6 1-357); test: pull-down; MBP-tagged DBD dimer (200 pmol) as bait on amylose beads, DENND10 (500 pmol) as prey; 10 mM HEPES pH 7, 150 mM NaCl, 5% glycerol, 0.05% Triton X-100, 5 mM beta-mercaptoethanol, 4 °C, 30 min; Coomassie
T2 construct: DENND10 (FAM45A), human, codon-optimised gene; source: E. coli BL21 (DE3) T1R, purified (Ni-NTA, Source 15Q, Superdex Increase 200)

[3] = biological target: B1; test: SEC; untagged DBD dimer and DENND10, alone and mixed; Superdex 200, 100 mM NaCl, 10 mM HEPES pH 7.0, 5% glycerol, 1 mM DTT; SDS-PAGE of fractions
[4] = biological target: T3, MBP-CCDC22 (280-446) (human, UniProt O60826 280-446); test: reconstitution by mixing and co-purification; amylose-purified MBP-tagged CCDC22 and CCDC93 fragments mixed about 1:1, overnight at 4 °C, then Source 15Q and Superdex 200
T3 construct: CCDC22, human, DBD; also called MBP-CCDC22 DBD; source: E. coli BL21 (DE3) T1R, purified (amylose); not shown: MBP, N-terminal, kept

T1 sequence (Q8TCE6 whole entry): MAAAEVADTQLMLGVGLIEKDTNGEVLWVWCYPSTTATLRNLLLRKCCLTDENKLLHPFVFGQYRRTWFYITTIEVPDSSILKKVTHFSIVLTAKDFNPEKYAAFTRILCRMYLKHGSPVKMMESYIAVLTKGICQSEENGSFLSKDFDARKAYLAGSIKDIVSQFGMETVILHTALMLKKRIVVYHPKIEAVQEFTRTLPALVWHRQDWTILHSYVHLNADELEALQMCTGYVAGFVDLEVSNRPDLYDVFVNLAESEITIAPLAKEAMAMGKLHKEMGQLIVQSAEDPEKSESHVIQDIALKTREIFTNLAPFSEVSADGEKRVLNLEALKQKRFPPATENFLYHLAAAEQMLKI
T2 sequence (Q8TCE6 whole entry): as above

Binder	binding result [1]	binding result [2]	other results
B1	binds	–	–
B2	–	binds	–
B3	–	binds	–
B4	binds	–	binding result [3]: binds
B5	–	–	binding result [4]: binds
